Data as given in patent US20240261333A1, “NOVEL TARGETS FOR ENHANCING ANTI-TUMOR IMMUNITY” (THE BROAD INSTITUTE, INC., priority 2021, published 2024).

T1: B3GNT2 (Homo sapiens, UniProt Q9NY97)
T1 construct: The respective ORFs of candidate genes [CD274 (NM_014143), MCL1 (NM_021960), JUNB (NM_002229), and B3GNT2 (NM_006577)] were synthesized; expressed in transfected cells; host or cells: A375 melanoma cells (lentiviral ORF overexpression)
T1 sequence (Q9NY97 1-397): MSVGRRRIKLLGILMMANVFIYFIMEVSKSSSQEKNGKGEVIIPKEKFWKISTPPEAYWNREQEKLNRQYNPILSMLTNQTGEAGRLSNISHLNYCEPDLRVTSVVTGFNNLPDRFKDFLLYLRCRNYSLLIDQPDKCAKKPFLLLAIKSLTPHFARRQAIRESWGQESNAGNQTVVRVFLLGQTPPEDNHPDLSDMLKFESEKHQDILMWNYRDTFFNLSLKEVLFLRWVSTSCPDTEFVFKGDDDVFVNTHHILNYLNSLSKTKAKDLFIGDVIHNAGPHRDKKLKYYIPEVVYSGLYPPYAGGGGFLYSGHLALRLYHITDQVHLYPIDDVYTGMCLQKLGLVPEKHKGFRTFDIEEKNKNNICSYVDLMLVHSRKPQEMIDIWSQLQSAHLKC

B1: ARF4 (protein)
chain: GLTISSLFSRLFGKKQMRILMVGLDAAGKTTILYKLKLGEIVTTIPTIGFNVETVEYKNICFTVWDVGGQDRIRPLWKHYFQNTQGLIFVVDSNDRERIQEVADELQKMLLVDELRDAVLLLFANKQDLPNAMAISEMTDKLGLQSLRNRTWYVQATCATQGTGLYEGLDWLSNELSKR
B2: CCT2 (protein)
chain: MDKILLSSGRDASLMVTNDGATILKNIGVDNPAAKVLVDMSRVQDDEVGDGTTSVTVLAAELLREAESLIAKKIHPQTIIAGWREATKAAREALLSSAVDHGSDEVKFRQDLMNIAGTTLSSKLLTHHKDHFTKLAVEAVLRLKGSGNLEAIHIIKKLGGSLADSYLDEGFLLDKKIGVNQPKRIENAKILIANTGMDTDKIKIFGSRVRVDSTAKVAEIEHAEKEKMKEKVERILKHGINCFINRQLIYNYPEQLFGAAGVMAIEHADFAGVERLALVTGGEIASTFDHPELVKLGSCKLIEEVMIGEDKLIHFSGVALGEACTIVLRGATQQILDEAERSLHDALCVLAQTVKDSRTVYGGGCSEMLMAHAVTQLANRTPGKEAVAMESYAKALRMLPTIIADNAGYDSADLVAQLRAAHSEGNTTAGLDMREGTIGDMAILGITESFQVKRQVLLSAAEAAEVILRVDNIIKAAPRKRVPDHHPC
B3: HSPD1 (protein)
chain: AKDVKFGADARALMLQGVDLLADAVAVTMGPKGRTVIIEQSWGSPKVTKDGVTVAKSIDLKDKYKNIGAKLVQDVANNTNEEAGDGTTTATVLARSIAKEGFEKISKGANPVEIRRGVMLAVDAVIAELKKQSKPVTTPEEIAQVATISANGDKEIGNIISDAMKKVGRKGVITVKDGKTLNDELEIIEGMKFDRGYISPYFINTSKGQKCEFQDAYVLLSEKKISSIQSIVPALEIANAHRKPLVIIAEDVDGEALSTLVLNRLKVGLQVVAVKAPGFGDNRKNQLKDMAIATGGAVFGEEGLTLNLEDVQPHDLGKVGEVIVTKDDAMLLKGKGDKAQIEKRIQEIIEQLDVTTSEYEKEKLNERLAKLSDGVAVLKVGGTSDVEVNEKKDRVTDALNATRAAVEEGIVLGGGCALLRCIPALDSLTPANEDQKIGIEIIKRTLKIPAMTIAKNAGVEGSLIVEKIMQSSSEVGYDAMAGDFVNMVEKGIIDPTKVVRTALLDAAGVASLLTTAEVVVTEIPKEEKDPGMGAMGGMGGGMGGGMF
B4: MSN (protein)
chain: PKTISVRVTTMDAELEFAIQPNTTGKQLFDQVVKTIGLREVWFFGLQYQDTKGFSTWLKLNKKVTAQDVRKESPLLFKFRAKFYPEDVSEELIQDITQRLFFLQVKEGILNDDIYCPPETAVLLASYAVQSKYGDFNKEVHKSGYLAGDKLLPQRVLEQHKLNKDQWEERIQVWHEEHRGMLREDAVLEYLKIAQDLEMYGVNYFSIKNKKGSELWLGVDALGLNIYEQNDRLTPKIGFPWSEIRNISFNDKKFVIKPIDKKAPDFVFYAPRLRINKRILALCMGNHELYMRRRKPDTIEVQQMKAQAREEKHQKQMERAMLENEKKKREMAEKEKEKIEREKEELMERLKQIEEQTKKAQQELEEQTRRALELEQERKRAQSEAEKLAKERQEAEEAKEALLQASRDQKKTQEQLALEMAELTARISQLEMARQKKESEAVEWQQKAQMVQEDLEKTRAELKTAMSTPHVAEPAENEQDEQDENGAEASADLRADAMAKDRSEEERTTEAEKNERVQKHLKALTSELANARDESKKTANDMIHAENMRLGRDKYKTLRQIRQGNTKQRIDEFESM
B5: CD70 (protein)
chain: MPEEGSGCSVRRRPYGCVLRAALVPLVAGLVICLVVCIQRFAQAQQQLPLESLGWDVAELQLNHTGPQQDPRLYWQGGPALGRSFLHGPELDKGQLRIHRDGIYMVHIQVTLAICSSTTASRHHPTTLAVGICSPASRSISLLRLSFHQGCTIASQRLTPLARGDTLCTNLTGTLLPSRNTDETFFGVQWVRP
B6: CSRP1 (protein)
chain: MPNWGGGKKCGVCQKTVYFAEEVQCEGNSFHKSCFLCMVCKKNLDSTTVAVHGEEIYCKSCYGKKYGPKGYGYGQGAGTLSTDKGESLGIKHEEAPGHRPTTNPNASKFAQKIGGSERCPRCSQAVYAAEKVIGAGKSWHKACFRCAKCGKGLESTTLADKDGEIYCKGCYAKNFGPKGFGFGQGAGALVHSE
B7: RRP12 (protein)
chain: MGRSGKLPSGVSAKLKRWKKGHSSDSNPAICRHRQAARSRFFSRPSGRSDLTVDAVKLHNELQSGSLRLGKSEAPETPMEEEAELVLTEKSSGTFLSGLSDCTNVTFSKVQRFWESNSAAHKEICAVLAAVTEVIRSQGGKETETEYFAALVLSCLATLLRKQDLEAWGYPVTLQVYHGLLSFTVHPKPKIRKAAQHGVCSVLKGSEFMFEKAPAHHPAAISTAKFCIQEIEKSGGSKEATTTLHMLTLLKDLLPCFPEGLVKSCSETLLRVMTLSHVLVTACAMQAFHSLFHARPGLSTLSAELNAQIITALYDYVPSENDLQPLLAWLKVMEKAHINLVRLQWDLGLGHLPRFFGTAVTCLLSPHSQVLTAATQSLKEILKECVAPHMADIGSVTSSASGPAQSVAKMFRAVEEGLTYKFHAAWSSVLQLLCVFFEACGRQAHPVMRKCLQSLCDLRLSPHFPHTAALDQAVGAAVTSMGPEVVLQAVPLEIDGSEETLDFPRSWLLPVIRDHVQETRLGFFTTYFLPLANTLKSKAMDLAQAGSTVESKIYDTLQWQMWTLLPGFCTRPTDVAISFKGLARTLGMAISERPDLRVTVCQALRTLITKGCQAEADRAEVSRFAKNFLPILFNLYGQPVAAGDTPAPRRAVLETIRTYLTITDTQLVNSLLEKASEKVLDPASSDFTRLSVLDLVVALAPCADEAAISKLYSTIRPYLESKAHGVQKKAYRVLEEVCASPQGPGALFVQSHLEDLKKTLLDSLRSTSSPAKRPRLKCLLHIVRKLSAEHKEFITALIPEVILCTKEVSVGARKNAFALLVEMGHAFLRFGSNQEEALQCYLVLIYPGLVGAVTMVSCSILALTHLLFEFKGLMGTSTVEQLLENVCLLLASRTRDVVKSALGFIKVAVTVMDVAHLAKHVQLVMEAIGKLSDDMRRHFRMKLRNLFTKFIRKFGFELVKRLLPEEYHRVLVNIRKAEARAKRHRALSQAAVEEEEEEEEEEEPAQGKGDSIEEILADSEDEEDNEEEERSRGKEQRKLARQRSRAWLKEGGGDEPLNFLDPKVAQRVLATQPGPGRGRKKDHGFKVSADGRLIIREEADGNKMEEEEGAKGEDEEMADPMEDVIIRNKKHQKLKHQKEAEEEELEIPPQYQAGGSGIHRPVAKKAMPGAEYKAKKAKGDVKKKGRPDPYAYIPLNRSKLNRRKKMKLQGQFKGLVKAARRGSQVGHKNRRKDRRP
B8: MARS (protein)
chain: MRLFVSDGVPGCLPVLAAAGRARGRAEVLISTVGPEDCVVPFLTRPKVPVLQLDSGNYLFSTSAICRYFFLLSGWEQDDLTNQWLEWEATELQPALSAALYYLVVQGKKGEDVLGSVRRALTHIDHSLSRQNCPFLAGETESLADIVLWGALYPLLQDPAYLPEELSALHSWFQTLSTQEPCQRAAETVLKQQGVLALRPYLQKQPQPSPAEGRAVTNEPEEEELATLSEEEIAMAVTAWEKGLESLPPLRPQQNPVLPVAGERNVLITSALPYVNNVPHLGNIIGCVLSADVFARYSRLRQWNTLYLCGTDEYGTATETKALEEGLTPQEICDKYHIIHADIYRWFNISFDIFGRTTTPQQTKITQDIFQQLLKRGFVLQDTVEQLRCEHCARFLADRFVEGVCPFCGYEEARGDQCDKCGKLINAVELKKPQCKVCRSCPVVQSSQHLFLDLPKLEKRLEEWLGRTLPGSDWTPNAQFITRSWLRDGLKPRCITRDLKWGTPVPLEGFEDKVFYVWFDATIGYLSITANYTDQWERWWKNPEQVDLYQFMAKDNVPFHSLVFPCSALGAEDNYTLVSHLIATEYLNYEDGKFSKSRGVGVFGDMAQDTGIPADIWRFYLLYIRPEGQDSAFSWTDLLLKNNSELLNNLGNFINRAGMFVSKFFGGYVPEMVLTPDDQRLLAHVTLELQHYHQLLEKVRIRDALRSILTISRHGNQYIQVNEPWKRIKGSEADRQRAGTVTGLAVNIAALLSVMLQPYMPTVSATIQAQLQLPPPACSILLTNFLCTLPAGHQIGTVSPLFQKLENDQIESLRQRFGGGQAKTSPKPAVVETVTTAKPQQIQALMDEVTKQGNIVRELKAQKADKNEVAAEVAKLLDLKKQLAVAEGKPPEAPKGKKKK
B9: SLC25A5 (protein)
chain: TDAAVSFAKDFLAGGVAAAISKTAVAPIERVKLLLQVQHASKQITADKQYKGIIDCVVRIPKEQGVLSFWRGNLANVIRYFPTQALNFAFKDKYKQIFLGGVDKRTQFWLYFAGNLASGGAAGATSLCFVYPLDFARTRLAADVGKAGAEREFRGLGDCLVKIYKSDGIKGLYQGFNVSVQGIIIYRAAYFGIYDTAKGMLPDPKNTHIVISWMIAQTVTAVAGLTSYPFDTVRRRMMMQSGRKGTDIMYTGTLDCWRKIARDEGGKAFFKGAWSNVLRGMGGAFVLVLYDEIKKYT

Target: T1, B3GNT2
Test: Co-IP of FLAG-tagged B3GNT2 followed by mass spectrometry
Format: cell-based
Parameters: C-term IgG / C-term flag: unit not given here
Conditions: Co-IP with FLAG antibody, C-terminally FLAG-tagged B3GNT2; mass spectrometry count, unit not given
In short: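 FLAG-tagged B3GNT2 immunoprecipitated from cell lysate (HEPES, 1% Triton X-100, 150 mM NaCl) with anti-FLAG versus […], overnight at 4° C, then captured on Protein A/G magnetic beads for 4 h. Two biological replicates per condition. Peptides fractionated and analyzed by nano-LC on an Orbitrap Elite in data-dependent mode.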

C-term flag	Molecule
4	B1
2	B2
6	B3
4	B4
2	B5
3	B6
2	B7
0	B8
30	B9

Same assay, conditions: Co-IP with FLAG antibody, N-terminally FLAG-tagged B3GNT2; mass spectrometry count, unit not given

N-term FLAG	Molecule
4	B1
0	B2
10	B3
3	B4
0	B5
0	B6
0	B7
2	B8
19	B9

Same assay, conditions: Co-IP with IgG control antibody, C-terminally FLAG-tagged B3GNT2; mass spectrometry count, unit not given

C-term IgG	Molecule
0	B1
0	B2
2	B3
0	B4
0	B5
0	B6
0	B7
0	B8
3	B9

Same assay, conditions: Co-IP with IgG control antibody, N-terminally FLAG-tagged B3GNT2; mass spectrometry count, unit not given

N-term IgG	Molecule
0	B1
0	B2
0	B3
0	B4
0	B5
0	B6
0	B7
0	B8
6	B9
